Results: paper PMC5806685

Biological target: EYFP-RyR1 (full-length rabbit type 1 ryanodine receptor), expressed in RyR1/RyR3 double-null (R1R3) myotubes (rabbit) (UniProt P11716)
Assay: FRET or BRET

Sequence of EYFP-RyR1 (full-length rabbit type 1 ryanodine receptor), expressed in RyR1/RyR3 double-null (R1R3) myotubes, P11716 1-5037 (natural protein) (P11716 whole entry): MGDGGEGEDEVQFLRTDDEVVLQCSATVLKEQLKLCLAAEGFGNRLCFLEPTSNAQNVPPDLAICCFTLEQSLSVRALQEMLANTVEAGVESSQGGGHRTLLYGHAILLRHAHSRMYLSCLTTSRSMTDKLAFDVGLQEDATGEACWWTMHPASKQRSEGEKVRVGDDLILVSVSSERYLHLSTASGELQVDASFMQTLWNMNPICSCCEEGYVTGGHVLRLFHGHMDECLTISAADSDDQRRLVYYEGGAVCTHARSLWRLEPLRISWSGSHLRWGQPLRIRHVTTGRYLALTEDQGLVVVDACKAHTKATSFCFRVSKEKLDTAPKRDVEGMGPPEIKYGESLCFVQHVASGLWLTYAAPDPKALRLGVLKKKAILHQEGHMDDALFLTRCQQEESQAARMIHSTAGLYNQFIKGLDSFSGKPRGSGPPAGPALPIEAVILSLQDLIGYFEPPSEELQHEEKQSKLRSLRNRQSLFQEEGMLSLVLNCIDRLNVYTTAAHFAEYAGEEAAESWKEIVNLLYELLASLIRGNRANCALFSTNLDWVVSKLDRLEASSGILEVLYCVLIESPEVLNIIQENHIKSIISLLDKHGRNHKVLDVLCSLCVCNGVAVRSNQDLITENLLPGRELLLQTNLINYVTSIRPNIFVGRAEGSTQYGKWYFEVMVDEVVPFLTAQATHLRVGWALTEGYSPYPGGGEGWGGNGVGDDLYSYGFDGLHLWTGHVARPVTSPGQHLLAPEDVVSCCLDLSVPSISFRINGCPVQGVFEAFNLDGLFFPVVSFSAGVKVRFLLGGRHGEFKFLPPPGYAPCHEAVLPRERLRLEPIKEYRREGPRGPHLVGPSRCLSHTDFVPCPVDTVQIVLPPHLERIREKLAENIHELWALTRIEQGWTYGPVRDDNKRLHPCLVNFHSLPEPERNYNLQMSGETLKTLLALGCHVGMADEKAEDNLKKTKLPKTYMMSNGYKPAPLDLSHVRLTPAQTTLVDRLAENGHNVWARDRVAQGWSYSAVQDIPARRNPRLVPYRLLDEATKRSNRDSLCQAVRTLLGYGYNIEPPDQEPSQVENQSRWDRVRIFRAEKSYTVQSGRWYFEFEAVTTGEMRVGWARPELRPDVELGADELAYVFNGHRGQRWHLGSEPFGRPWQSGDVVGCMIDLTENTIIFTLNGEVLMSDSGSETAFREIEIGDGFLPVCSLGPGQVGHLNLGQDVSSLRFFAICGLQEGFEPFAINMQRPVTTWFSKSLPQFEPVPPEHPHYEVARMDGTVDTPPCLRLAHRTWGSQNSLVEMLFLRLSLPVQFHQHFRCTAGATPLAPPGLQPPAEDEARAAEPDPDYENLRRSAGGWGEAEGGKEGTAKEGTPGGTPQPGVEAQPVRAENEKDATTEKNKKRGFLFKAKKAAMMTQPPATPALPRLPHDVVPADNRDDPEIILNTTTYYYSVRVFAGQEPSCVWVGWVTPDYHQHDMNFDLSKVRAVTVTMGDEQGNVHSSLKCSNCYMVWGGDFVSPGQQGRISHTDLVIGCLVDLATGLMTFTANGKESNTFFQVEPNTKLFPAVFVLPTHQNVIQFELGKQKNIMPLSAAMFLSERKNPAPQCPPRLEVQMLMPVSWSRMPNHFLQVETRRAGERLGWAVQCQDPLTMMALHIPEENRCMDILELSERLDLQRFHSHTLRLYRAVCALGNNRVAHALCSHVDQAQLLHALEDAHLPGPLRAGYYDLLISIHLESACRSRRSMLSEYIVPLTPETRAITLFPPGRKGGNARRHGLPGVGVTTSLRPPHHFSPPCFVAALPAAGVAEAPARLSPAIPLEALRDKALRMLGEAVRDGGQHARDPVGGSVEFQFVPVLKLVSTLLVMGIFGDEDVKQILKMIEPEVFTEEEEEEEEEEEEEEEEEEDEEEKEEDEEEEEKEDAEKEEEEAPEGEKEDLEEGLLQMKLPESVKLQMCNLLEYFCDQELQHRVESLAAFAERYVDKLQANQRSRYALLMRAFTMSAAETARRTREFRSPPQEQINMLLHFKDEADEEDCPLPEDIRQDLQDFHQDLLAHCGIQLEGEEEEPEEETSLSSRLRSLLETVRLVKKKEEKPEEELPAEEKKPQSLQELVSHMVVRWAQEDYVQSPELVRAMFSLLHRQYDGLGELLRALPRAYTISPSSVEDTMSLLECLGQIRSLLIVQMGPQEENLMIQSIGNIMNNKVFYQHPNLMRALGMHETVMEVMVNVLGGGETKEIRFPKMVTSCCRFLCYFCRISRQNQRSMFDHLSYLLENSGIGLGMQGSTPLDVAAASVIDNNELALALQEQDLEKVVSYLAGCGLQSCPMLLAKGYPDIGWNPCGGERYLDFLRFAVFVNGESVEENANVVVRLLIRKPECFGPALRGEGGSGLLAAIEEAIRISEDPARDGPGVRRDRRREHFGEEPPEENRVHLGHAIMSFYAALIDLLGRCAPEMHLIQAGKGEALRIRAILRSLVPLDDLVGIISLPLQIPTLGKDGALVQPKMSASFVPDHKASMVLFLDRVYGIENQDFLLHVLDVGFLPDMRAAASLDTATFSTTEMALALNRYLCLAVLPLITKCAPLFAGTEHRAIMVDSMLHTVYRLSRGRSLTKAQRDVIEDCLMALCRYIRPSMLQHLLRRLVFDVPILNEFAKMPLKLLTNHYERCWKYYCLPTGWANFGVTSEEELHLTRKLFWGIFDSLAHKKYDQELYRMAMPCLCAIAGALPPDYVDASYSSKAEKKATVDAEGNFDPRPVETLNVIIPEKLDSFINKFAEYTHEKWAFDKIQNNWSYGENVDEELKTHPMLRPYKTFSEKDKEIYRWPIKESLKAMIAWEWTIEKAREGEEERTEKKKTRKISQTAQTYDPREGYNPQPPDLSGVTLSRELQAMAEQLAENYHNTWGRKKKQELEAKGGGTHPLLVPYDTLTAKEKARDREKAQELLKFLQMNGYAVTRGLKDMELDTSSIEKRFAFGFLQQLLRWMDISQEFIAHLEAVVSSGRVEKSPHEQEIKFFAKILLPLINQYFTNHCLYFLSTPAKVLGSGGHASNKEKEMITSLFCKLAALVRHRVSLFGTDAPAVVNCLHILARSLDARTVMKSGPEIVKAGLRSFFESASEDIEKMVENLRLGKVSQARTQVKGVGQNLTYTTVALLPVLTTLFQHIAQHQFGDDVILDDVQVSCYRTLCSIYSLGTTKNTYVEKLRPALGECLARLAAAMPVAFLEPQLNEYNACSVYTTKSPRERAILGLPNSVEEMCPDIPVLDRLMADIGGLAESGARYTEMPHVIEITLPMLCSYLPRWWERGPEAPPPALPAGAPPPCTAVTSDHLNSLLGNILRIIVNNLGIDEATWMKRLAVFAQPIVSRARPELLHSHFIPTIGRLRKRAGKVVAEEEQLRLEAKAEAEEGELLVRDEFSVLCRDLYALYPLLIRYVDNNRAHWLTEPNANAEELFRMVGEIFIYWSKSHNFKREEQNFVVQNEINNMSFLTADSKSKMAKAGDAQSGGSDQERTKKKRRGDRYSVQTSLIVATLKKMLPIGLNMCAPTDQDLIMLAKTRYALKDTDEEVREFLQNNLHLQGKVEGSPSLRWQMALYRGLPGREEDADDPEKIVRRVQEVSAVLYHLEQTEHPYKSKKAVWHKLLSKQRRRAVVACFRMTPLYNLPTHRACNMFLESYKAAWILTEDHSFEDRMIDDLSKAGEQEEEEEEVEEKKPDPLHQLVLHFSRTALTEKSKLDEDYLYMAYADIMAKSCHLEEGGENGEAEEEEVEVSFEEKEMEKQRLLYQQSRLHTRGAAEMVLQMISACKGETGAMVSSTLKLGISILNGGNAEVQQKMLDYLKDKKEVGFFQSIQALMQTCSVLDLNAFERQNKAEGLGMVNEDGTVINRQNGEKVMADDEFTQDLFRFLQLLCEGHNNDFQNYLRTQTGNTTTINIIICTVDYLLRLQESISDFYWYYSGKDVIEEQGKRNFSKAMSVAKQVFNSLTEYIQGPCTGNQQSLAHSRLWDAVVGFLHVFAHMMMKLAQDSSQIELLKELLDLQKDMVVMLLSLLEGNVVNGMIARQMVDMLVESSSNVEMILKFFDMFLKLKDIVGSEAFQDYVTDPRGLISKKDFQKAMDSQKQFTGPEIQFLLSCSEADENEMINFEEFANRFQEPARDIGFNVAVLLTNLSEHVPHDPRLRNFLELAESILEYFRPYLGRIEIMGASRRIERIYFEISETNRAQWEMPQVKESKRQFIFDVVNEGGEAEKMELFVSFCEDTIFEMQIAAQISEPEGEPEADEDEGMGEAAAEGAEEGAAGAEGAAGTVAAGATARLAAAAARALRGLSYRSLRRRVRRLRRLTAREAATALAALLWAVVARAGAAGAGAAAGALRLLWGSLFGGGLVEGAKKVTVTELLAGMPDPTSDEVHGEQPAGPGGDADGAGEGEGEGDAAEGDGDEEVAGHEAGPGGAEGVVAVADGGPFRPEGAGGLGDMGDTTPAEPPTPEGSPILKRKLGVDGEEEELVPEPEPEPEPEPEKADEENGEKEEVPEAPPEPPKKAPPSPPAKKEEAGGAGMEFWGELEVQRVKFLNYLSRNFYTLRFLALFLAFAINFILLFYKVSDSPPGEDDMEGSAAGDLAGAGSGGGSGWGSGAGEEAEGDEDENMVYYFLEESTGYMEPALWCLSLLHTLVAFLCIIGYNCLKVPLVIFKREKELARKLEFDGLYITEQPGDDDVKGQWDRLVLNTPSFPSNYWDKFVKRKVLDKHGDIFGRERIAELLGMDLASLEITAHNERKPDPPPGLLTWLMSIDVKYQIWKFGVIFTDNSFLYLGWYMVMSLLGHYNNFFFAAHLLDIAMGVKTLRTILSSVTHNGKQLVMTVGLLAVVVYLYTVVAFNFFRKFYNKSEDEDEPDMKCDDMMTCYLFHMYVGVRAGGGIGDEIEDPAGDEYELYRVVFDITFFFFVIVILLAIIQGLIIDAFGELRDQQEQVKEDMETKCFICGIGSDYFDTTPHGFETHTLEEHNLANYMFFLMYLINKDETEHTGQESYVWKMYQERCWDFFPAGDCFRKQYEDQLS

Question: For “EYFP-RyR1 (full-length rabbit type 1 ryanodine receptor), expressed in RyR1/RyR3 double-null (R1R3) myotubes, P11716 1-5037 (natural protein)”, which FRET efficiency is on record?
Answer: 8.6%
